Reference: PMC4977500, “Rescuing neuronal cell death by RAIDD- and PIDD- derived peptides and its implications for therapeutic intervention in neurodegenerative diseases” (Scientific Reports, 2016)

B1: RAIDD DD (domain or fragment)
chain: not shown
notes: RAIDD death domain, amino acids 94-199; also called RAIDD death domain; source: E. coli BL21 (DE3) RILP, purified
B2: PIDD DD (domain or fragment, UniProt Q9HB75 777-883, looked up)
chain: LNLGDAETGFLTQSNLLSVAGRLGLDWPAVALHLGVSYREVQRIRHEFRDDLDEQIRHMLFSWAERQAGQPGAVGLLVQALEQSDRQDVAEEVRAVLELGRRKYQDS
notes: PIDD death domain, amino acids 777-883; The His tag is named on the protein for the pull-down; also called his-tagged PIDD DD; PIDD death domain; source: E. coli BL21 (DE3) RILP, purified

How the values were obtained:
Conditions in all cases: both partners purified
[1] = molecular target: B2; experiment: native gel or EMSA; native-PAGE on a PhastSystem, 8-25% acrylamide gradient gels, Coomassie staining; complexes in 20 mM Tris pH 8.0, 50 mM NaCl; pre-incubated with or without peptide for 1 hour at room temperature; complex band without peptide taken as 100%
[2] = molecular target: T1, full-length RAIDD (UniProt P78560 1-199); experiment: as above
T1 construct: RAIDD, full length, amino acids 1-199; source: E. coli BL21 (DE3), purified (Ni-NTA, S-200 gel filtration)

[3] = molecular target: T2, Full-length RAIDD without any tag (UniProt P78560 1-199); experiment: pull-down; his-tagged PIDD DD on Ni-NTA beads, full-length RAIDD without any tag, with RDH3 or PDH3 (30 μM or 500 μM); wash 20 mM Tris-HCl pH 7.9, 500 mM NaCl, 30 mM imidazole; eluate on SDS-PAGE
T2 construct: RAIDD, full length, amino acids 1-199; source: E. coli BL21 (DE3), purified

[4] = molecular target: B1; experiment: native gel or EMSA; native-PAGE on a PhastSystem, 8-25% acrylamide gradient gels, Coomassie staining; complexes in 20 mM Tris pH 8.0, 50 mM NaCl; pre-incubated with or without peptide for 1 hour at room temperature; complex band without peptide taken as 100%

T2 sequence (P78560 whole entry, the tested form may be a part): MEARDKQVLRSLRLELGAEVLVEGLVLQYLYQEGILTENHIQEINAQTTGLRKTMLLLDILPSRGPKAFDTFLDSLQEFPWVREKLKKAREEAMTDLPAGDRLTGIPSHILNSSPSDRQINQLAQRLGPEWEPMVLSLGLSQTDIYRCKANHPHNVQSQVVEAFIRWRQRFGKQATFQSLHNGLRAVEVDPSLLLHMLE
T1 sequence (P78560 whole entry, the tested form may be a part): as above
Chain of RAIDD DD (P78560 94-199): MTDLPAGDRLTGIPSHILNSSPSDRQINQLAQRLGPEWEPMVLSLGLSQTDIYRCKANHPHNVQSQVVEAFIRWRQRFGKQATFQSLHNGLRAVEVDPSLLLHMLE

B1
binding result [1]: binds

B2
binding result [2]: binds | binding result [3]: binds

B3: RDH3 (TAT-fused peptide with wildtype RAIDD DD helix 3) (peptide)
peptide: YGRKKRRQRRRGGGGLSQTDIYRCKANHPHNV
notes: RAIDD helix 3 (H3 of the death domain), wildtype; FITC-labelled versions were also made, but only for microscopy of cell entry; also called RAIDD DD H3; source: synthetic peptide (Peptron)
fold inhibitory capacity against TAT-Y814A (blocking of RAIDD DD:PIDD DD) [1]: > 5 fold

B4: PDH3 (TAT-fused peptide with wildtype PIDD DD helix 3) (peptide)
peptide: YGRKKRRQRRRGGGGVSYREVQRIRHEFR
notes: PIDD helix 3 (H3 of the death domain), wildtype; FITC-labelled versions were also made, but only for microscopy of cell entry; also called PIDD H3; source: synthetic peptide (Peptron)
fold inhibitory capacity against TAT-Y814A (blocking of RAIDD DD:PIDD DD) [4]: > 5 fold
